Source: US20240383984A1 (Genentech, published 2024)
Substitutions are numbered along the chain they refer to. One block for each binder: values may come before it.

Assays:
[1] = target: T1, cynomolgus FcRH5 (full-length, on cells) (cynomolgus monkey); test: FACS, SVT2 cells
T1 construct: also called SVT2-Cyno-FcRH5; cyno FcRH5
T1 chain: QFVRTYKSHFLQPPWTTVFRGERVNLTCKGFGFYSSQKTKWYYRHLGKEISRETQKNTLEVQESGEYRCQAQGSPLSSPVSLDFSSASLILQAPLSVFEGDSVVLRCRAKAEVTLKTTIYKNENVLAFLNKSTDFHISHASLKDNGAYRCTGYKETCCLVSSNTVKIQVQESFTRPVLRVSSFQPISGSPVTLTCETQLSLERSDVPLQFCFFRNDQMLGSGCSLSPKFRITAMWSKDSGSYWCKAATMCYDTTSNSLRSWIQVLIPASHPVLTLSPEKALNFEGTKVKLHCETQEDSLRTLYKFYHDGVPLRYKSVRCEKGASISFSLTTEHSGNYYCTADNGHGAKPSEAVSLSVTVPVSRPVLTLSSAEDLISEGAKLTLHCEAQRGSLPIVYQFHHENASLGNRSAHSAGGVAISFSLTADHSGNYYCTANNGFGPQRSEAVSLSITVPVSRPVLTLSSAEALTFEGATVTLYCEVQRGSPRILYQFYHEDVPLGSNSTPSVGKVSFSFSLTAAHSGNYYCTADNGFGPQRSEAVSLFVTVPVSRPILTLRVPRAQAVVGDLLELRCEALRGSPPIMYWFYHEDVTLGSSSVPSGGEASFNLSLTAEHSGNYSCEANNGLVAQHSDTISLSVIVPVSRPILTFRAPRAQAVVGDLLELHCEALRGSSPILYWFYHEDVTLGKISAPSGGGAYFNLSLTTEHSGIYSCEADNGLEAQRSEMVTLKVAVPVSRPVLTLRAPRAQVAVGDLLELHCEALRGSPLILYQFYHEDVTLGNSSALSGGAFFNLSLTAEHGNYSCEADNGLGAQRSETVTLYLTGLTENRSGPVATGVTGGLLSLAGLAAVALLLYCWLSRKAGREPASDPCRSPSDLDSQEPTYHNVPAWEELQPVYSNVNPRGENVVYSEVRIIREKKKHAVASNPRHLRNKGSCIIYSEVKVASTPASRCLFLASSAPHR

[2] = target: T2, human FcRH3 (BIACORE analyte) (human, UniProt Q96P31 18-573, limits assumed); test: BIACORE
T2 construct: also called huFcRH3
T2 sequence (looked up): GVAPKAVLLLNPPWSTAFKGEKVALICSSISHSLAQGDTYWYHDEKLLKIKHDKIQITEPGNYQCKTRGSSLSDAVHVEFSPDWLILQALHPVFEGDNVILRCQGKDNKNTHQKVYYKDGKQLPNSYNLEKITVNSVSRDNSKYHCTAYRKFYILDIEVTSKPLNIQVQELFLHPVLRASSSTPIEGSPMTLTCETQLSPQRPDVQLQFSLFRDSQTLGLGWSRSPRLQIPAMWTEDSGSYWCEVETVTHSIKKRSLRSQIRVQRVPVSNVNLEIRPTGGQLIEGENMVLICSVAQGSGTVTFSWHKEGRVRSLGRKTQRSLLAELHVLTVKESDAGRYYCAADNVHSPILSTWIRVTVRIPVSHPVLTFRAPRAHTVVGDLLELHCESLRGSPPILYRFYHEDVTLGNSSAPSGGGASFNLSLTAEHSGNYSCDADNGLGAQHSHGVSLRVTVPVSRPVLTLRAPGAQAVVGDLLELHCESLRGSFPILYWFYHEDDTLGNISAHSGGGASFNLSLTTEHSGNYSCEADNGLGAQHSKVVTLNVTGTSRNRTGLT

[3] = target: T3, cynomolgus FcRH5 protein fragment (soluble) (cynomolgus monkey); test: SPR, hIgG capture, 1:1 model
T3 construct: whole entry named; also called Cyno FcRH5 (BIACORE analyte)
T3 chain: T1 chain
Method: Briefly, a human IgG capture surface was generated on a Series S CM5 chip using amine coupling and the human IgG capture kit (GE Life Sciences, Piscataway, NJ). Test antibodies were then captured on flow cells 2, 3, or 4, with flow cell 1 used as a reference. An FcRH5 protein fragment was used as the analyte, with a flow rate of […]. Between injections the capture surface was regenerated by a 30-second injection of 3M magnesium chloride or 10 mM glycine, pH 1.5. Interactions were assessed at 25° C. in 10 mM HEPES pH7.4, 150 mM NaCl, and 0.05% Tween 20 (HBSP). Reference data from the reference flow cell and from injection of buffer alone were subtracted prior to kinetic analysis. Kinetic information was calculated by fitting data to a 1:1 binding model. Reference subtraction and data fitting were performed using BIAevaluation software (GE Life Sciences, Piscataway, NJ).
Kinetic characterization experiments were carried out (see Table 8). In these experiments, binding of soluble FcRH5 protein fragment to purified antibodies in human TDB antibody format was analyzed at six different non-zero concentrations (a 1:3 dilution series, one concentration injected twice as a replicate). Flow rate was set at 40 μl/min and association and dissociation monitored for 600 s.

[4] = target: T3, cynomolgus FcRH5 protein fragment …; test: SPR (BIACORE), Cyno FcRH5, 1:1 binding model
[5] = target: T4, human FcRH1 (full-length, on SVT2 cells) (human, UniProt Q96LA6 17-429); test: flow cytometry on SVT2-FcRH1 cells, PE-labelled secondary
T4 construct: whole, on cells; also called SVT2-FcRH1
T4 sequence (looked up): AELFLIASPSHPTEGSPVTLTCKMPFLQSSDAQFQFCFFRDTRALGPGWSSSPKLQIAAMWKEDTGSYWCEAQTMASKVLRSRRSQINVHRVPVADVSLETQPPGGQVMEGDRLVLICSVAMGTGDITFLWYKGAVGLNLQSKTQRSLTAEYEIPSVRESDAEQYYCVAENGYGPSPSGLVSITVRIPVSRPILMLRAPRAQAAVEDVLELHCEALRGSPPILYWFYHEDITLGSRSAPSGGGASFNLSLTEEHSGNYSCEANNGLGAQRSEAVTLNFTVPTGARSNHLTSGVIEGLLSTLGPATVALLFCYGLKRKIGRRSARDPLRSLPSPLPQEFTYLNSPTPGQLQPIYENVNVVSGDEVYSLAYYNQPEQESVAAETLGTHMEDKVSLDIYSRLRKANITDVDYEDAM
Method: Human FcRH5, cyno FcRH5, human FcRH1, FcRH2, FcRH3, and FcRH4 transfected mouse SVT2 cells were used to test binding and cross-reactivity of FcRH5 TDBs. The method was carried out as follows. Cultured SVT2 cells were lifted using non-enzyme cell dissociation buffer (Sigma, #C5914). 1×10⁵ cells were suspended in 100 μL and incubated with FcRH5 TDBs at 3 μg/ml. […] Cells were washed twice with FACS buffer before flow cytometry analysis was carried out on a FACSCalibur.

binding result [1]: binds
B1: 17B1 (antibody, mouse IgG2a, V domains shown)
VH: QVQLQQSGPELVRPGVSVKISCKGSGYTFTHYAMHWVKQSHTKSLEWIGMISSSSGNTNFNQKFMDKATMTVDKSSTTAYLELARLTFGDSAIYYCARWSYYALFDYWGQGTTVTVSS
VL: ENVLTQSPAIMSASPGEKVTMTCSADSSVDYIHWYQQKSNTSPKLWIYDTSKLASGVPGRFSGSGSGNSYSLTISSMEAEDFATYYCFQGSGYPLTFGSGTKLELK
notes: mouse mAb, Campaign C; recombinant murine IgG2a for SPR

Kd [2]: ~80 nM | Kd [3]: 6.3 nM | koff [3]: 0.0008 s⁻¹ | kon [3]: 100000 M⁻¹ s⁻¹
B2: hu1G7.v1.4/38E4.v1 TDB (bispecific antibody, V domains shown)
VH 1: EVQLVESGPGLVKPSETLSLTCTVSGFSLTRFGVHWVRQPPGKGLEWLGVIWRGGSTDYNAAFMSRLTISKDNSKNQVSLKLSSVTAADTAVYYCSNHYYGSSDYALDNWGQGTLVTVSS
VL 1: DIQMTQSPSSLSASVGDRVTITCKASQDVRNLVVWFQQKPGKAPKLLIYSGSYRYSGVPSRFSGSGSGTDFTLTISSLQPEDFATYYCQQHYSPPYTFGQGTKVEIK
VH 2: EVQLVQSGAEVKKPGASVKVSCKASGFTFTSYYIHWVRQAPGQGLEWIGWIYPENDNTKYNEKFKDRVTITADTSTSTAYLELSSLRSEDTAVYYCARDGYSRYYFDYWGQGTLVTVSS
VL 2: DIVMTQSPDSLAVSLGERATINCKSSQSLLNSRTRKNYLAWYQQKPGQSPKLLIYWTSTRKSGVPDRFSGSGSGTDFTLTISSLQAEDVAVYYCKQSFILRTFGQGTKVEIK
notes: knob-into-hole TDB; also called 1G7.v1.4 TDB; 1G7.v1.4 (TDB format)

Kd [4]: 7.82 nM | koff [4]: 0.000455 s⁻¹ | kon [4]: 58200 M⁻¹ s⁻¹ | Kd [2]: ~90 nM | binding result [5]: no binding | Kd [3]: 6.8 nM | koff [3]: 0.0008 s⁻¹ | kon [3]: 100000 M⁻¹ s⁻¹
B3: 1G7.v85/38E4.v1 TDB (bispecific antibody, V domains shown)
VH 1: B2 VH 1 with M64V
VL 1: B2 VL 1
VH 2: B2 VH 2
VL 2: B2 VL 2
notes: knob-into-hole TDB; also called 1G7.v85 TDB; 1G7.v85 (TDB format)
